Data on 4 molecules can be found in patent US20190256592A1 (GENAGON THERAPEUTICS, published 2019).

Test [1] has as its target Cleft Lip and Palate Transmembrane protein 1 (CLPTM1), human, native, in cells (human) (UniProt O96005). As to the kind of experiment: flow cytometry on permeabilised O-876 cells expressing native CLPTM1, 10x dilution series. A general note: In flow cytometry, cells or beads pass a laser one at a time.
Test [2] has the same target. As to the kind of experiment: flow cytometry on permeabilised O-876 cells expressing native CLPTM1.
The target in test [3] is T1, Cleft Lip and Palate Transmembrane protein 1 (CLPTM1), human, native, in cells (human, UniProt O96005 2-669).
T1 construct: Native CLPTM1 as expressed by cells; also called CLPTM1 receptor
T1 sequence: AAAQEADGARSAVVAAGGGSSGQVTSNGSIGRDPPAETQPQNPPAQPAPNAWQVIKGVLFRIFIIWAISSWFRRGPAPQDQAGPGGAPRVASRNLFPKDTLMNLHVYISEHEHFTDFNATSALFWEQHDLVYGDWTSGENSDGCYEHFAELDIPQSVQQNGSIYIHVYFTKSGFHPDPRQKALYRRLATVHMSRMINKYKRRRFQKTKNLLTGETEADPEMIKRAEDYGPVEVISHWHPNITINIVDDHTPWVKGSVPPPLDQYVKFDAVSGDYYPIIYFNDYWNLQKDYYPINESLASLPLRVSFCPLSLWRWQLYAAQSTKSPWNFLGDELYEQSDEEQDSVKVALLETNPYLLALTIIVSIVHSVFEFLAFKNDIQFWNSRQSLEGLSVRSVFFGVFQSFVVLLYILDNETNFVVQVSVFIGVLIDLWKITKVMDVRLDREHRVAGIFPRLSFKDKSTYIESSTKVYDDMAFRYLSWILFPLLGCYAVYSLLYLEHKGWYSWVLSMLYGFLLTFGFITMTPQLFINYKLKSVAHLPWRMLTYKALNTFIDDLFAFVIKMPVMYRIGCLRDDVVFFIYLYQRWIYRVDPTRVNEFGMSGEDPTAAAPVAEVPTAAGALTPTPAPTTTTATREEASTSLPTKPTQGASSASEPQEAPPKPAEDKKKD
The description is as above. The procedure:
(§1) Affinity of antibodies was determined by finding the half-maximal binding on the native target in a flow cytometry assay. Since the native target is found inside most cells and rarely on the cell surface, the assay was performed using plasma membrane-permeabilized cells, an intra-cellular staining protocol. Using the native target is more applicable when evaluating and comparing various antibodies as it is the true antigen to be bound in a therapeutic setting in vivo. 0-876 cells were permeabilized with BD-fix and permeabilization buffer (554722 BD-Biosciences). Antibody at various concentrations was incubated with cells for 30 minutes at +4 C, then washed twice with wash buffer (BD-Biosciences 554723). Secondary antibodies a-mouse IgG-PE (Molecular Probes) was used for mouse monoclonal antibodies according to manufacturer's instructions and a-rabbit-IgG-PE (Molecular Probes) for rabbit monoclonal antibody (Abcam ERP8800). Three washes followed and fluorescence intensity in cells was quantified by FACS Cantoll in PBS with cells in 2% FCS buffer.
(§2) The assay was performed on 0-876 cancer cell line.

Test [4] deals with T1, Cleft Lip and Palate Transmembrane …. As to the kind of experiment: flow cytometry on permeabilised O-876 cells expressing native CLPTM1; Kd defined by half maximal binding. On the procedure: as §1, §2
For test [5], the target named is T2, ….
T2 sequence (peptide, biotinylated; C-terminal glycine not from CLPTM1): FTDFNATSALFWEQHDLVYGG
The experiment in a line: ELISA: biotinylated CLPTM1 peptide on streptavidin plate, GDF15 at 100 ng/ml, detected with goat anti-GDF15 and anti-goat-HRP.

Test [6] concerns the target T3, ….
T3 sequence (peptide, biotinylated; C-terminal glycine not from CLPTM1): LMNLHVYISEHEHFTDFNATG
Described as above. This is another data set of the same source.

Test [7] concerns the target T4, ….
T4 sequence (peptide, biotinylated; C-terminal glycine not from CLPTM1): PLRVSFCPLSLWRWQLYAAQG
Described as above. This is another data set of the same source.

Test [8] addresses T5, ….
T5 sequence (peptide, biotinylated; C-terminal glycine not from CLPTM1): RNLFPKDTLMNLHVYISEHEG
The test is described as above. The source holds these as a separate data set.

In test [9] the target is T6, ….
T6 sequence (peptide, biotinylated; C-terminal glycine not from CLPTM1): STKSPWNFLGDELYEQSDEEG
Described as above. The source holds these as a separate data set.

The target in another test is T7, AAAQEADGARSAVVAAGGGSG (biotinylated; C-terminal glycine not from CLPTM1).
T7 construct: also called G1
T7 peptide: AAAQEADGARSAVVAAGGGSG
The description is as above. On the procedure:
(§3) Biotinylated synthetic peptide fragments from CLPTM1 (JPT peptides, Germany) were immobilized in a streptavidin 96 well plate (#15500 Pierce) at 1 μM in PBS overnight at +4° C. Plate was washed 4 times in 300 μl PBS with 0.05% Tween-20 (wash buffer). The plate was blocked with PBS 1% BSA and 0.05% Tween-20 (blocking buffer) for 1.5 hours at room temperature then washed 4 times in wash buffer. GDF15 ligand (Abcam) was added in blocking buffer at 100 ng/ml and incubated at room temperature for 2 hours. The plate was then washed 8 times in 300 μl wash buffer with 2×NaCl. A GDF15 antibody as added at 1 μg/ml (R&D systems goat polyclonal) and incubated in block buffer for 1 hour at room temperature followed by washing with 4×300 μl wash buffer. HAF017 anti-goat-HRP antibody was added and incubated for 1 hour in blocking buffer followed by a wash. TMB substrate was added and stopped after 15 minutes with H2SO4. OD 450-620 was measured in an ELISA reader.
(§4) Polypeptides having sequences set forth in SEQ ID NOs:10-33 were assessed for binding to GDF15 (corresponding to the polypeptides indicated from left to right in FIG. 2 and shown in Table 1). These proteins were synthesised with a C-terminal glycine residue that is not present in the corresponding sequences from CLPTM1.

The target in the next test is T8, MIKRAEDYGPVEVISHWHPNG (biotinylated; C-terminal glycine not from CLPTM1).
T8 construct: also called G12
T8 peptide: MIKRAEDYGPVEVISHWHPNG
The test is described as above. The procedure: as §3, §4

A further test addresses T9, NDYWNLQKDYYPINESLASLG (biotinylated; C-terminal glycine not from CLPTM1).
T9 construct: also called G15
T9 peptide: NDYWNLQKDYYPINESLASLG
Described as above. The procedure:
as §3, §4

Another test deals with T10, YEQSDEEQDSVKVALLETNPG (biotinylated; C-terminal glycine not from CLPTM1).
T10 construct: also called G18
T10 peptide: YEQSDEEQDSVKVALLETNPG
Described as above. On the procedure:
as §3, §4

A further test deals with T11, LWRWQLYAAQSTKSPWNFLGG (biotinylated; C-terminal glycine not from CLPTM1).
T11 construct: also called G19
T11 peptide: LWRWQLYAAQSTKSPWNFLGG
The test is described as above. The procedure:
as §3, §4

The next test addresses T12, WQVIKGVLFRIFIIWAISSWG (biotinylated; C-terminal glycine not from CLPTM1).
T12 construct: also called G22
T12 peptide: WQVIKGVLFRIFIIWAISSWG
Described as above. The procedure: as §3, §4

A further test concerns the target T13, SGQVTSNGSIGRDPPAETQPG (biotinylated; C-terminal glycine not from CLPTM1).
T13 construct: also called G2
T13 peptide: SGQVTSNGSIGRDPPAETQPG
Described as above. The procedure: as §3, §4

A further test concerns the target T14, QNPPAQPAPNAWQVIKGVLFG (biotinylated; C-terminal glycine not from CLPTM1).
T14 construct: also called G3
T14 peptide: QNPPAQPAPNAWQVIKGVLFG
The description is as above. On the procedure:
as §3, §4

The target of the next test is T15, RIFIIWAISSWFRRGPAPQDG (biotinylated; C-terminal glycine not from CLPTM1).
T15 construct: also called G4
T15 peptide: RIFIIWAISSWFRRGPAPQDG
The description is as above. The procedure:
as §3, §4

The next test concerns the target T16, QAGPGGAPRVASRNLFPKDTG (biotinylated; C-terminal glycine not from CLPTM1).
T16 construct: also called G5
T16 peptide: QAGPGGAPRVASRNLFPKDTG
Described as above. The procedure: as §3, §4

A further test has as its target T17, SALFWEQHDLVYGDWTSGENG (biotinylated; C-terminal glycine not from CLPTM1).
T17 construct: also called G7
T17 peptide: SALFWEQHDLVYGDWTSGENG
Described as above. The procedure:
as §3, §4

Another test deals with T18, SDGCYEHFAELDIPQSVQQNG (biotinylated; C-terminal glycine not from CLPTM1).
T18 construct: also called G8
T18 peptide: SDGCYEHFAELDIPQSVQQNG
The description is as above. The procedure: as §3, §4

The target of the next test is T19, RRRFQKTKNLLTGETEADPEG (biotinylated; C-terminal glycine not from CLPTM1).
T19 construct: also called G11
T19 peptide: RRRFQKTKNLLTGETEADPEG
The test is described as above. On the procedure:
as §3, §4

Test [10] has as its target T20, CLPTM1 peptide G9 (residues 162-181 with C-terminal glycine) (human, biotinylated (position not given)).
T20 construct: Biotinylated synthetic peptide on a streptavidin plate; The C-terminal glycine is not in CLPTM1
T20 peptide: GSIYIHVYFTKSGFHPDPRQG
The test is described as above. The procedure:
as §3, §4

The target of test [11] is T21, CLPTM1 peptide G10 (residues 182-201 with C-terminal glycine) (human, biotinylated (position not given)).
T21 construct: Biotinylated synthetic peptide on a streptavidin plate; The C-terminal glycine is not in CLPTM1
T21 peptide: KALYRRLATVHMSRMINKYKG
The test is described as above. On the procedure:
as §3, §4

Test [12] deals with T22, CLPTM1 peptide G14 (residues 262-281 with C-terminal glycine) (human, biotinylated (position not given)).
T22 construct: Biotinylated synthetic peptide on a streptavidin plate; The C-terminal glycine is not in CLPTM1
T22 peptide: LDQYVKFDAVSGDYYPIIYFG
Described as above. The procedure:
as §3, §4

The target in test [13] is T23, CLPTM1 peptide G20 (residues 292-311 with C-terminal glycine) (human, biotinylated (position not given)).
T23 construct: Biotinylated synthetic peptide on a streptavidin plate; The C-terminal glycine is not in CLPTM1
T23 peptide: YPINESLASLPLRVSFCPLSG
Described as above. The procedure:
as §3, §4

Test [14] deals with T24, CLPTM1 peptide G21 (residues 273-292 with C-terminal glycine) (human, biotinylated (position not given)).
T24 construct: Biotinylated synthetic peptide on a streptavidin plate; The C-terminal glycine is not in CLPTM1
T24 peptide: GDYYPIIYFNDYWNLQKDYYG
The description is as above. On the procedure: as §3, §4

The molecule “Santa Cruz mouse anti-human CLPTM1 monoclonal antibody (G-7) (sc-374619)” came in with a percent of maximum binding at 1 µg/ml in test [1] of less than 50%.
Regarding “AbCam anti-CLPTM1 rabbit monoclonal antibody EPR8800 (RabMab)”, the percent of maximal binding at 1 µg/mL in test [2] was more than 50%. The percent of maximum binding at 0.1 µg/ml in [1] was more than 50%.

B1: Mouse monoclonal anti-CLPTM1 antibody 7G12 (antibody, V domains shown)
VH: QVQLQQSGTELVRPGTSVKVSCKASGYAFTNYLIEWVKQRPGQGLEWIGVINPGSGGTRYNEKFKGKATLTADKSSTTAHMQLSSLTSDDSAVYCARWGGNYSGYAMDYWGQGTSVTVSS
VL: QIVLTQSPVIMSASPGEKVTITCSASSSVSYMHWFQQKPGTSPKLWIYSTSNLASGVPARFSGSGSGTSYSLTISRMEAEDAATYYCQQRSSYPPTFGAGTKL
notes: Mouse IgG1 heavy chain, kappa light chain; also called mAb 7G12; 7G12hyb
Broadly, the EC50 is the midpoint of the concentration-response curve. For orientation: Kd means the equilibrium constant for the complex coming apart. On to B1, for which the EC50 in [3] is less than 1 µg/mL. The dissociation constant Kd in [4] is less than 1 nM.

B2: Growth and Differentiation Factor 15 (GDF15) (ligand, UniProt Q99988 197-308, looked up)
chain: ARNGDHCPLGPGRCCRLHTVRASLEDLGWADWVLSPREVQVTMCIGACPSQFRAANMHAQIKTSLHRLKPDTVPAPCCVPASYNPMVLIQKTDTGVSLQTYDDLLAKDCHCI
notes: Bought protein (Abcam); also called MIC-1; GDF15 ligand (Abcam)
As to B2, the OD ELISA 450nm - 620nm came out at 0.061 OD in test [5]; 0.058 OD in test [6]; 0.063 OD in [7]; 0.055 OD in test [8]; 0.053 OD in [9]; 0.022 OD with AAAQEADGARSAVVAAGGGSG. In addition, the “OD ELISA 450nm - 620nm” value was found to be 0.028 OD with MIKRAEDYGPVEVISHWHPNG; 0.038 OD in the test with NDYWNLQKDYYPINESLASLG; 0.022 OD with YEQSDEEQDSVKVALLETNPG; 0.033 OD in the test with LWRWQLYAAQSTKSPWNFLGG; 0.023 OD with WQVIKGVLFRIFIIWAISSWG; 0.009 OD with SGQVTSNGSIGRDPPAETQPG. Moreover, the “OD ELISA 450nm - 620nm” value with QNPPAQPAPNAWQVIKGVLFG came out at 0.042 OD; with RIFIIWAISSWFRRGPAPQDG, 0.026 OD; with QAGPGGAPRVASRNLFPKDTG, 0.034 OD; in the test with SALFWEQHDLVYGDWTSGENG, 0.034 OD; with SDGCYEHFAELDIPQSVQQNG it was 0.024 OD; in the test with RRRFQKTKNLLTGETEADPEG it was 0.021 OD. Also, the “OD ELISA 450nm - 620nm” value was found to be 0.149 OD in [10]; 0.197 OD in test [11]; 0.14 OD in [12]; 0.22 OD in test [13]; 0.507 OD in [14].
